Laboratory results as given in patent publication US20220256794A1, “TERPENE SYNTHASES AND TRANSPORTERS” (The State of Israel, Ministry of Agriculture & Rural …, priority 2019, published 2022).

Key:
[1] = Terpene synthase activity assay with GPP; assay type: biochemical; details: TPS expressed in E. coli; 10 μM GPP, overnight at 30° C., SPME GC-MS
Protocol: Putative terpene synthase genes were synthesized by the TWIST Co., and cloned into Novagen pET-28a(+) with a 6×His tag at its' N-terminus. The recombinant plasmid was then sequenced for authentication and transformed into BL21(DE3) pLysS and pLysE strains of E. coli (Agilent Technologies) for heterologous expression. An overnight culture was used to inoculate a 20-200 mL culture, induced with 0.1 mM IPTG at an OD 600 nm >0,8 for initiation of recombinant protein translation then incubated at 18° C. and 250 RPM overnight. The cells were collected by centrifugation and the recombinant enzymes were extracted either as a crude extract or purified on a Ni-NTA agarose resin as previously described [Gonda I. et al., The Plant Journal (2013) 61, 458-472].
To determine the terpene synthase catalytic activity, reaction mixtures containing 100 μl of protein extract or purified protein were incubated overnight at 30° C. with either 10 μM geranyl diphosphate (GPP) or farnesyl diphosphate (FPP), in a final volume of 200 μl using a buffer containing 50 mM bis-tris, pH 6.9, 1 mM DTT, 10% (v/v) glycerol, 0.1 mM of MnCl2 and 10 mM of MgCl2. The volatiles produced were extracted by solid-phase microextraction (SPME) according to the methodology previously described [Iijima Y. et al., Plant Physiol (2004) 136: 3724-3736]. As controls, reactions were carried out without the cofactors MnCl2 and MgCl2, or protein extracts were heat inactivated by incubation at 100° C. for 5 minutes, or a short peptide product of an empty pET100 vector was utilized.
For solid-phase microextraction (SPME) analysis, a 57298-U SPME fiber assembly Divinylbenzene/Carboxen/Polydimethylsiloxane (DVB/CAR/PDMS, Supelco) needle size 23 ga, StableFlex, was used with an autosampler and analyzed by GC-MS as previously described [Davidovich-Rikanati R. et al., Nature Biotech (2007) 25:899-901; Davidovich-Rikanati R. et al., Plant J (2008) 56:228-238]. The SPME fiber were adsorbed for 30 min. by automatic HS-SPME at 50° C. followed by injection of the fiber into a GC-MS injection port for 5 min. (splitless), for desorption of the volatiles. Chiral separation was conducted on a Restek Rt™-bDEXsm column (30 m length 0.25 mm i.d., 0.25 μm film thickness, 2,3-di-O-methyl-6-O-tert-butyl dimethylsilyl beta cyclodextrin added into 14% cyanopropylphenyl/86% dimethyl polysiloxane). Helium (0.8 ml min-1) was used as a carrier gas with splitless injection. The injector temperature was 250° C., and the detector temperature was 230° C. The following conditions were used: initial temperature 40° C. for 5 min., followed by a ramp of 2° C./min. to 110° C., and 10° C./min up to 230° C. (5 min.). A quadrupole mass detector with electron ionization at 70 eV was used to acquire the MS data in the range of 41 to 350 m/z. The identification of the volatiles was assigned by comparison spectral data with the W10N11 and HPCH2205 GC-MS libraries and with authentic standard when available.

yeast cells = assay: Yeast growth (turbidity A600) in the presence of CBD; assay type: cell-based, Saccharomyces cerevisiae (strain Y1HGold); details: 0.5 mM CBD, 7-12 hours, FIG. 2
Protocol: The genes were expressed in yeast and tobacco. For yeast, the ABC and PTR Transporter genes were synthesized by the TWIST Co, cloned and expressed (individually) in the yeast expression vector pESC-URA (Agilent Technologies) for expression under the yeast native gal-10 promoter. Competent Saccharomyces cerevisiae (strain Y1HGold, CloneTech) cells were prepared, transformed by each of the resulting vector and selected on yeast synthetic media lacking Uracil as previously described [GietzR. D., Methods Mol. Biol. (2014) 1205:1-12].
An alternative method is to measure the yeast growth as a function of turbidity. Transformed yeast cells were grown on URA-glucose broth at 30° C. at 200 RPM, and after 24 hours 100 μl was used to inoculate 5 ml of URA-galactose broth in the same conditions till O.D.600 of 1.5. The yeast was further diluted to OD600=0.05 with 10 ml URA-galactose, and divided into two 5 ml aliquots into separate 50 ml falcon tubes. The first falcon (control) was added 78 μl acetonitrile (the solvent that the CBD was dissolved in), and the second one was added 78 μl CBD solution in acetonitrile (final CBD concentration=0.5 mM). […]

Molecule	Monoterpenes produced with GPP [1]	inhibition of yeast growth in response to CBD, transporter-expressing yeast vs control yeast (yeast cells)
795-1: Cannabis terpene synthase gene product, amino acid SEQ ID NO: 18 (protein, Terpene Synthase Gene Amino acid sequence of the 45 identified gene products) MITGVISSSTTIFKEQPEAIVRRSGNYKPTLWDAHFFKSLQVIYTEESYGKRINELKEDVRRILEKEAENPLVKLEQINDLSRLGISYHFEDQIKTILNLTFNNNNALWKKDNLYATALHFKLLRQYGFNPVSSEVFNAFKDQKKEFKESLSKDVKGMVCLYEASFYSFRGEPILDEARDFTTKHLKQYLMTRQCQTKSVDHDDDHDLVKLVEHALDLPLHWRLPRLEARWFIDMYAERNYDMNPTFLDFAKLDYNFVQSAYQKELKYISRWWSGSRLTERLPFARDRVVEIFYSAVALKYEAEFGFVRTVMTKIGLLLTLMDDIYDVYGTLDELQLFLGAIERWNINELDQLPDYMKILFVAFYNNVNEISYYVLKENGIHIIKYLKKALGDLCKCYMEEAKWFHSGHIPSLEEFIENGWKSITIPLCLIYHYCLITTSITEQDMEHLLQYPTILRVSGTVFRFIDDLGTSSDELERGDNPSSIQCYMREKGVSENESREHIWNLISEGWKEINEVKASNSPYSQVFIESAIDFVRGAMEMYHKGDGFGTNQDRYLKTKVVNMFFDPIPI	geraniol	–
T-AG2575-2: Cannabis ABC-G transporter gene product, amino acid SEQ ID NO: 56 (protein, ABC+PTR Transporter amino acid sequence (of the 12 identified gene products)) MEVGDLYRAGNSLRNISLRSSTSSVWRGNNNNNNNKDEYFSKSRREDDINDEEALTWAALEKLPTYDRLRKGILTTSKGETTEVDVINLGFKQRKDLLQRLVNVADEDNESFLLKLKQRIQTVGIDLPTIEVRFENVKVEADVHVGSRALPSFINFCINIIEMLVSFLPILKSKKKHVTILDDVSGAIKPGRLTLLLGPPSSGKTTLLLTLAGKLASELKFSGRVTYNGHEMNEFIPQRTAAYISQHDVHIGEMTVRETLSFSARCQGVGTRYEMLAELSRREKEANIKPDPDIDIFMKATSTEGQKSSVVTDYVLKILGLEVCADTVVGDEMLRGISGGQRKRVTTGEMLVGPSGVLFMDEISTGLDSSTTYQIVNSLKQYVHIFNGTNVISLLQPAPETYDLFDDIILLSDGHIVYQGPRENVLEFFEFTGFKCPERKAIADFLQEVTSKKDQAQYWTRGDEAYRFVSAKEFVEAFKSFHVGQKIREYLSTPFDKTKSHPAALTTKNFGLNKMELLKACMSREYLIMKRNSFVHIFKIVQLSVMGLIHGTLFLRTKMHHRTLEDGTIYLGSLFFAALMIMFNGMSEIPMTIAKLPVFYKQRDLQFFPAWAYAVPSMLFKVPIAFLEVAVWIILTYYTTGLEPSVVRMFRLYFILVIVNQMASGLFRSIAALSRNMIIANTFGAFSLLLLFVLGGFVLSRDDINSGWIWAYWVTPLMYGQTGILVNEFRGSKWNKVTPNSTETLGIQVLKSKGFFTDSYWYWLGFGVLVAYTVLFNILYTLALNYLNSIEKSQALSNEDPENNDHEIQVGRETRTNEIQQTSSINNTGENQSKKKGMILPFEPHSITFNDVIYSVDMPQAMKNQGVVEDKLVLLKGVSGSFRPGVLTALMGISGAGKTTLMDVLAGRKTGGYIEGDIRISGYPKKQETFARISGYCEQNDIHSPHVTVYESLLYSAWLRLPTEVDSEKRKMFIEEVMELVELTPLRQALVGLPGVSGLSTEQRKRLTIAVELVANPSIIFMDEPTSGLDARAAAIVMRTVRNTVDTGRTVVCTIHQPSIDIFEAFDELFLMKRGGEEIYVGPLGRHSCHLINYFEAIEGVSKIKNGYNPGTWMLEVSSSAQEIALGVDFANIYKNSELCKRNKDLIKELSSPAPGSKDLYFPTQFSRSLNTQCIACLWKQRQSYWRNPLYTAVRFMFTTFIALIFGTVFWDLGSKRSNIQDLSNALGSMYCAVLFIGIQNASSVQPVVSVERSVFYREKAAGMYSAFPYSFGQLVVEIPYILCQSVVYCLIVYAMIGFEWTAIKFFWFLFFSFFSMLYFTFYGMMAVGITPNNHIASIVSSAFYSVWNLFSGFIIPRTRMPVWWKWYYWGCPVSWTLYGLLVSQYGDVDDVINAVTGETVKQYLRSYLGYKHDFIGVVAVVNVLFALLFGSIFAFSVKILNFQNR	–	reduced inhibition of growth
796-3: Cannabis terpene synthase gene product, amino acid SEQ ID NO: 23 (protein, Terpene Synthase Gene Amino acid sequence of the 45 identified gene products) MDTQRKLQAEQLSCPTKSHELIFDHKSDHQRRSANYTPTIWKYDFLESLNNKYDSEEYKKRSEKLIEDVRHNIVETKDLKGMLELINTIRKLSLTYHFEDEVKKVLDKISSSNYYYNNKDIKDPRLVGDDLYLAALYFRLLRLHGYQVSQDIFVGYNSVDYKKGGGTHNITSTEVKVMIELLEASHVAFECEDTLTEAKALMEENLKIAFPDNCNKYIPKHEVVHALELPSHWRVQWFDVKWQIEAYRQHGDPDTNTTTTTSLLVDLAKLNFNIIQATLQKDLRELSSWWKNVGLSEKLEFARDRLVESFMCTVGLAFQPEYKSLRKCLTKVVNFILIVDDVYDVYGSLEELRHFTNAVNRWDVRETEELPDCMKICFQALYHTTCEIASEIETKNGCKLVLPNLKGAWTDFCKSLLMEAEWYHKGYIPSLEEYLSNAWISSSGPLLLLHSYLAMPNQTNTASSLDISKDLVYNISLIIRLCNDLGTSAAEQERGDAASSIVCYMQETKSSEEEARKHIREMIRKTWKKINKTCFSTCGSSSLSLSFIDIALNTARVAHSLYQSGDAFSAQHTDYKTHILSLLVHPLIPNK	geraniol	–
792-7: Cannabis terpene synthase gene product, amino acid SEQ ID NO: 12 (protein, Terpene Synthase Gene Amino acid sequence of the 45 identified gene products) MSPCEATIDEKRPNMPKFTPTIWGDYFMSSASNHHHSSLMETMENNNKESYEKIIEMKEQVKNKLLHGLHPLENPLETLEYIDDIQRLGLSYYFENEIEQNLEQFHNNYQNLIDFGDNNLYADALCFRLLRQQGYNIACDIFDKYKNEKGKFKESISSDIRGMLNLYEAAQMRVHGEKILDEALIFTTTHLESSVKTCQLSSPYLDLVKHALMHPIRKSLQRREARLYISLYHQLPSHEEILLTLAKLDFNLLQKLHQKELSYITRWWKEFDYKSKHSFIKDRIVECYFWVYGVFFEAETSQIRLIITKLIAILTIIDDAYDSFGTLEELEPFTQAIERWDICAIDTLPEYMKIFYMKLLEIYNEIEQFSKERSYCPSYAKKGVQSLIRAYFKEAKWLHTKYIPTLDEYMPVGVDSAGSFMLISMVFIGMGDIVTKHSMDWIFSNPQPKIIQTMAIVGRVMNDIGYHKSERKKSSGEIVASTVECYMKQYGVTGEEAIEKLSEQVKDSWKDLNEDLLNPITIPRPLLMQVLKLVRVNHEIYREGDGFTQPTLLKNLIHSLIINPIDF	beta-myrcene/geraniol	–
